Measured values published in the supplement of paper PMC12455559.
± gives the standard deviation of the averaged measurements.

How the values were obtained:
[1] = purified protein yield per well (BCA); higher = higher soluble expression
In short: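 The measured quantity is purified protein yield per well, determined with the Pierce Rapid Gold BCA kit. Anything below 25 ug (0.1 mg/mL) lies under the detection threshold. Enzymes were expressed in E. coli C41(DE3) in 2 mL autoinduction cultures with 100 µg/mL kanamycin at 37 °C for 2 h, then 18 °C for 40 h, and purified on an OT-2 robot using Ni-charged magnetic beads and SUMO protease release.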

[2] = PET hydrolysis, aromatic products released after 48 h (umol product/mg enzyme); higher = more PET depolymerization activity
Procedure: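 HTP-purified, SUMO-cleaved, tagless PET hydrolase candidates (5 ug, 1.43 mg/g PET) were incubated 48 h without shaking with 3.5 mg amorphous PET film (aFilm) or crystalline PET powder (cryPow) in 0.5 mL buffer: NaCitrate pH 4.5/5.5, NaPhosphate pH 6.5/7.5, glycine pH 8.5. Incubation was at 40 or 60 C. Aromatic products (TPA, MHET, BHET) in the supernatant were quantified by UV absorbance at 260/280 nm relative to buffer blanks and expressed per mg enzyme. LCC-ICCG was the positive control on every plate.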

[3] = substrate: cryPow, 40 °C, pH 4.5
[4] = substrate: cryPow, 40 °C, pH 5.5
[5] = substrate: cryPow, 40 °C, pH 6.5
[6] = substrate: cryPow, 40 °C, pH 7.5
[7] = substrate: cryPow, 60 °C, pH 4.5
[8] = substrate: cryPow, 60 °C, pH 5.5
[9] = substrate: cryPow, 60 °C, pH 6.5
[10] = substrate: cryPow, 60 °C, pH 7.5
[11] = substrate: cryPow, 40 °C, pH 8.5
[12] = substrate: cryPow, 60 °C, pH 8.5

Row | Sequence | purified protein yield per well [1] | PET hydrolysis [2, 3] | PET hydrolysis [2, 4] | PET hydrolysis [2, 5] | PET hydrolysis [2, 6] | PET hydrolysis [2, 8] | PET hydrolysis [2, 9] | PET hydrolysis [2, 10] | further results
1 | AAPAGPAALPARPLAAAPADSPYERGPAPTEASITAERGPFAIEKIDVPAGSGTGFNRGTIYAPTDTSQGTFGAIAVSPGFMSPQSVIDWYGPRLASQGFVVMTLETKSLLDAPAARGDQLLAALDYMTGKSKAKDRIDASRLAVMGHSMGGGGTLEAANKRASLQAAVPLAPWDTNYDWKNVQAPTMIMGADNDTIAPADSMAERYYGTLTAVPEKAYLELRNAGHTTFNAPNTTIAKYAIAWMKRFVDDDARYEQFLCPEPSPSTTIAQYEGTCPTG [TEP067] | 49.7 µg | 5 | 12 | 14 | < 3 |  |  |  | 
2 | ADNPYERGPAPTNASIEAVRGPYAVSQATVSSLAVTGFGGGTIYYPTTTSDGTFGAVAISPGYTGTQSSIAWLGPRLASQGFVVFTIDTNTTLDQPDSRGRQLLAALDYLTRVSPLRTRVDSTRLGVMGHSMGGGGSLEAAKSRPSLQAAIPLTPWNLDKTWPEIQTPTLIVGADGDSIAPVSSHAEPFYENLPSSLDRAYLELNGASHFAPNSSNTTIAKYSISWLKRFIDNDTRYEQFLCPLPRPSLTIEEYRGNCPHQS [TEP188] | 72.2 µg | < 3 | < 3 | < 3 | < 3 | < 3 | < 3 | < 3 | PET hydrolysis [2, 7]: < 3
3 | ADNPYQRGPDPTPASVAAVNGPFATASVSVPAGYGFGGGMIYYPTDTSQGTFGGIAISPGYTALFSAELAWMGPWLASHGFVVIGIETNSRNDFDEARGTQLLAALDYLTQQSPVRTRVDPNRLAVSGHSMGGGGALNAAIRRPSLKAAVGLAPFLPSSNLANDRVPTMVFAGQQDTVVSPSYVTNLYNSLPATTESAYLEIAGGDHGFPVGRPNQVMIRTMLPFVKIFLDNDTRYSQFLCPLMDSTGVVTYRSTCPLLPPGLPTTPPTSTSSNPTVGPTTPSTTAPTTTPAPGGACTATYRTTNSWPGGFQGEVTITAGSSAINGWTVRWTLGSGQTISQVWNGEVSITGSTVSVRNAPYNGSLPASGSTTFGFLGGGSPSSPSLTCTSP [TEP165] | 433 µg | 4.5 ± 0.71 | 11 | 52 ± 2.8 | 67 ± 11 | 25 | 46 ± 1.4 | 45.5 ± 2.1 | PET hydrolysis ([2]; substrate: aFilm, 40 °C, pH 4.5): < 3; PET hydrolysis ([2]; substrate: aFilm, 40 °C, pH 5.5): < 3; PET hydrolysis ([2]; substrate: aFilm, 40 °C, pH 6.5): 2 ± 2.8; PET hydrolysis ([2]; substrate: aFilm, 40 °C, pH 7.5): < 3; PET hydrolysis ([2]; substrate: aFilm, 60 °C, pH 4.5): 2 ± 2.8; PET hydrolysis ([2]; substrate: aFilm, 60 °C, pH 5.5): < 3; PET hydrolysis ([2]; substrate: aFilm, 60 °C, pH 6.5): 1.5 ± 2.1; PET hydrolysis ([2]; substrate: aFilm, 60 °C, pH 7.5): < 3; PET hydrolysis [2, 7]: 12
4 | AEPATIHGPAPTEESITAPTGPFEIDRETVPRSTVEGFGGGTIYYPTDTSEGTFSAVAIAPGYTAGQETLAWLGPRLASQGFVVFTIDTITTSDRPDARAEQLAASLDYLTGSSEVQDRIDPARLGVMGHSMGGGGALQAALDDPGLKAAIPMTPWNTVKDFSGVRTPTMIIGAQNDTVAPVAQHSEPFYESLPDDPGKAYLELAGASHFAPNRDDTTIAKSSIAWLKRFLDDDTRYDRFLCPPPQDPEISDYRATCPY [DP023] | 33 µg |  | < 3 | < 3 | < 3 |  |  |  | PET hydrolysis [2, 11]: < 3
5 | AETTTQHGPDPTEGSITAPTGPFQTDQKTVPRSSVQGFGGGTIYYPTETSQGTFGAVTIAPGYTAGKESLAWLGPRLASQGFVVFTIDTITTSDQPDSRAKQLMASLDYLTGDSDVRDRIDTSRLAVMGHSMGGGGTLEAARDNRNLKAAIPMTPWDTTKDFSGVQTPTLIIGAQNDTIAPVAQHAKPFYGSLPDDPGKAYLELAGASHFAPNQDNTTIAKSSIAWLKRFVDDDTRYDQFLCPPPQDAEISDYQSTCPY [TEP037] | 77 µg | < 3 | 5 | < 3 | < 3 | < 3 | < 3 | < 3 | PET hydrolysis [2, 7]: < 3
6 | ATAAPLPHAAADNPYQRGPDPTIAMIESTRGPFATASVSVPPGNGFNGGMIYYPTDTSQGTWGALAIVPGYTALFANEEAWMGPWLSSFGFVVIGVETNSRTDFDTARGTQLLAALDYLTTKSPVHDRVDPNRLSVLGHSMGGGGVVYATEHRPSLKAAVALAPFSPSQNMSTDTVPTMVIGGQNDTVVTPSYVDGLYATLPATTPSDFAQIAGADHVYYTHPNNVEMKLLIPWLKTFVDNDTRYTQFLCPTLPDPSTVSAYRPKCPYVPGGGTTPPPTGNTGPLHAVGAGKCLNAGASGSQAQIQDCTGGASQVWTHTDANQLSVTNGSQLCLDASGQGTSPGTKVITWACNGQPNQQWTVNSDGTVKGVQSGLCLDVSGASTASGALVQLWTCNGQPNQQWRLG [TEP062] | 85.2 µg | < 3 | < 3 | < 3 | < 3 | < 3 | < 3 | < 3 | PET hydrolysis [2, 7]: < 3
7 | ATPARPASVAAAPAAVQRAADNPYQRGPAPTEASITAEKGPFAVETIPVPAGSGTGFNKGTVYAPTDTSEGTFGAIVVSPGFVSPEAWISWYGPRLASQGFVVMTLETNSLVDVPASRGDQLLAALDWLTGKSSVKNRIDASRTAVMGHSMGGGGTLEAANKRPSLKADIPLAPWDTNYNFPNIKTPTLIMGADNDLIAPASSMAESYYNNITTAPEKAYLLLKNAGHMTFVSPNTTIAKYSIAWMKRFVDNDTRYDQFLCPAPKPDANIAKYLDTCPNG [DP016] | 83 µg |  | 4 | 14 | 17 | 10 | 10 | 7 | PET hydrolysis [2, 11]: 4; PET hydrolysis [2, 12]: < 3
8 | ATTAAAPAAAVRADSPYQRGPAPTEASVTAARGPFAIAQVTVPAGSGTGFNKGTIYYPTDTGQGTFGGVAVMPGFTSPQSVIQWLGPRLASQGFLVFTLDSLSLVDFPTARSQQLLAALDYLATRSTVRTRLDPNRLAVMGHSMGGGASLWAAQNRPSLKASVPLAPWETDTTWQGVRVPTMIIGGQADTVAPPATMAIPDYTSMTSAPEKAYLELRNGGHGAPATESPTVAKYALSWLKRFVDLDTRYDQFLCPAPAPTTAISQYRDTCPNG [DP058] | 52 µg |  | < 3 | < 3 | < 3 | < 3 | < 3 | < 3 | PET hydrolysis [2, 11]: < 3; PET hydrolysis [2, 12]: < 3
9 | WTPDPEPPGPVPEPCNTDCSQGPYPTTGSVEANMGPFSISSVSVPWTVSGFGGGTIYYPSSGTTGSLGAIALIPGFLGPEWTISAWGERLASHGFIVITVATNAVTDQPDSRATQLSRALDHVIIESGSTSSPIYGMVDPNRLGAMGISMGGGGTLKLTSDRTLSAAVPMVPWYLGFNDFESIDTPTLIIGCENDTIAPVALHSIPFYNAISDDVDKAYLEMNNGSHGCVAGLTNVDILGKYAVSWMKRFIDNDQRYDQFLCGPNHTAPFSVSDYRDNCDY [DP096] | < 25 µg |  |  |  |  |  |  |  | 
10 | YILASGFVGQLVAQTPSLEALGRQGPYQVAWYTQLPSVPEFSGATLYFPANKAQDFGGVVISPGFFERQENISWWGNYLASHGFAVITFDTNELRDLPPLRADALLATIDLLRGENSRQGSAVRGKILEDSMAVMGHSMGGAAALLLANENSNEIKAAIPFNAGGLRNANFSAVAVPTLVIAGEIDRLAPVNEHAWSHYQTLT [TEP088] | < 25 µg |  |  |  |  |  |  |  | 
11 | YNPPPPPPDPGPGPGQPSDGFERGPNPSVSFLEASRGPFSIRETRVSGTVRGFGGGTIYYPTGTSGTMGAIVVIPGFVSPESSIAWWGPKLASHGFVVMTIATNSGYDQPRSRATQINSALDYLIDQNSDSRSPVRNMIDTDRLGVMGWSMGGGGTLRVASQNRLKAAVGLAPYDTISFRNVDAPTMILACESDTIAPVRNHASPFYNEIPFNTDKAFFEINGGSHTCANGGNRFNETLSRLGVSWMKR [ESM179] | < 25 µg |  |  |  |  |  |  |  | 
12 | YQRGPDPTRSALTADGPFSVTTYTVSRYAVTGFGGGVIYYPTGTSLTFGGIAVSPGYTADASSLAWFGRRLASHGFVVLVINTNSRFDFPDSRASQLAAALDYLVSRSPSAVRARLDTSRLAVAGHSMGGGATLRISENRPSLKAAVPLTPWHTDKTFNTAVPQLIIGAENDTVAPVSDHAIPFYQNLPSTTPKVYLELNNASHF [TEP127] | < 25 µg |  |  |  |  |  |  |  | 
13 | YRPVVAFRVKVRKLERAIGESMASVARMQGRYLRASTLTAVAAATIVGCYLRGPDPTVELVESPVGPFEVETVLVPSTVDGFGGGEIYDPVDEDYSFGGIAVVPGVGIDRSRLEWYGPRLASHGFVVFLIETDSVWDVPDQRGEQLIAALDYMTTQSAVVDVVDPKRLAVMGYSFGGGGVIHATRLKPDLKAAIPLAMWFWDNDQSASTVPHLLISCEIDFENDAHTGAVYESRPASTARAMMEIAGADHQCIKQDGSTEQQ [TEP130] | < 25 µg |  |  |  |  |  |  |  | 
14 | YYPTSTSDGTFGAVVVTPGFTATESSMAWLGPRLASQGFVVFTIDTLTTLDQPDSRGRQMLAALDYLTERSSARTRIDGTRLGVIGHSMGGGGTLEAAKSRPSLKAAIPLTPWNLDKTWPEVTTPTLVVGADGDTVAPVATHAKPFYSSLPSSTDRAYLELNNATHFAPN [TEP120] | < 25 µg |  |  |  |  |  |  |  | 
15 | YYSGATLYYPIDAPEPFASIVIVPGWGMPESTIQDWGPFFASWGIVAMTIGTNNPNYDWPEERAEALLDAIETIKQEDGRINSPVYGKIDLNSFAVSGWSMGGGGAQLAAVMEPTLKAVIALCPWLDNWVLGPDDLNHSVPILIFSGENDVNAPPYLHADIHYNYTPAATDKLLFEVENGDHYVANGPDGGSGYIGDRAHEWLKKYLLDDFSNCELLLEVPPTASQYLTNIECESVIQGDLNGDGVIDILDIIILVNMILNDEYNSIADLNEDGELNILDVVTIVNLVLFGDDSVCIDIDGNIYETVQIGDQLWMAENLKVTHYNDGSEITHIINSDDWGNYNEGQYGVYDNDPSNADIYGNLYNWYTVDDDRGVCPEGFHAPSDEEFMELEIFLGMSESEANSTGNRGTNEGSKLADNADLWISGNLENNAEFGMSGFNGLPAGHRLYDNGYYSSMGNFVSYWSSTEHSSNYAWNRELEYHASVVYRFYATKQFGFSIRCLGD [TEP063] | < 25 µg |  |  |  |  |  |  |  | 
